Source: the domain aggregation screens of Martell et al. (2025)

test: soluble fraction after stress (log2 fold change); higher = more stays soluble; pooled small domains, quantitative proteomics; conditions: stress: 75 degC
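Note: 20 min heating vs room temperature control held 20 min.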

| Sequence | soluble fraction (log2) |
| --- | --- |
| HMAIKWTPEIEDEVSNKLKEKWSPEQISAWLKKNKSIMISHQRIYQFIVEDKMSGGNLYRNLRQ | -2.45 |
| HMAIPTTDSDKATDAQIKQIKLLGDIHPNLKLDAWLERNHVTWETLTREQAGNMMKAIKNKYGD | -0.105 |
| HMAISEAERARLQTKIKERNKMARWINTNLNPTSKIRNINPAETVRKLMTQDDADSLERSLDAFMEA | -0.0807 |
| HMAIVNVEVPSLVGKTEQEARNLLTEAGLKVNVVNDEDESKNDGVVLRQSKDAGTEVQEGTTITITVNKVS | 0.0932 |
| HMAKDDFMSFVKAVWPEFIEGAHHRVIAQKFNDLATGKITRLIVNMPPRHTKSEFASYLLPAW | 0.214 |
| HMAKDEYGLTSNQRAFADEYIRNKGNATQAYLFAYPHIKKENTAAVNASRLLRNAKVSKYIADRTKEIL | -0.103 |
| HMAKIDSRKALIDQLTTTFTRAQLEELITKNELSTDARFFLSQWNAKGWIRKTAKNVYEKLR | -0.969 |
| HMAKLTPDQQELRAIRIELQMSQPDFADAININVPRLSSYEYGRTAGVPTSIMEAARELKRSMSR | -0.848 |
| HMAKRDEIEAELPRFVATITQELAASRDVLSMIEHYKQNSGPVFSAELDVLTADMRSGSYEAALTRFEARF | 0.188 |
| HMAKRKYKSFKDVAEFAQKLGIKSSTEWWAYVRGHEIPSDIPKDPSTYYKKEWTTWGDFLGTGYVSSA | -0.513 |
| HMAKRTVPSVAEAIDNFRRQHRRMPSYAEMLPLLGVRSKSVVHFWINKLLENGLLEKDDKGYLTPGS | -0.134 |
| HMAKSPYDVLGLKEDAPFDEVKKRYRELVKKYHPDILMGRGESEEMIEKSTRKLQEINEAYETIKQRA | 0.119 |
| HMAKVDIPHEMVDQRIDEIVEEIKMNLESQNMSLDDYLKRMNQTEAQLRANYEATAAEQVRQGLV | 0.858 |
| HMALDSQEVGYNIEARGARPVVAQLGKAGQFSAVENSIRLGDDNWIALAPKLAGGGNAGFTAGIKSALS | -0.0514 |
| HMALIGSNLRHLRNERKLSQQELADLIRVGRTTIANIEANLANPGHKTLLEIVKVFDITIDELLHTDLTK | -1.79 |
| HMALKPKITIEELIRILNESKDLSDSETAKILNKDYTTAKYGKEFTSINVQGARYALDIATNTS | -0.145 |
| HMALLSNEDIMFNLEFNRDLAVASNDGVSRDEFLRNKYGISEEEYNMLRARYGDGLNAARIKEYVGQRD | -0.182 |
| HMALLSNTVDELHAGMRLDSYLFESGLYPSRSFAVKQIEAGKVFLNGDAVTKKTLVSNGDFIVYELEE | -0.854 |
| HMALMLGGLIVYLNTTAPRDDIDLIELSKDTKAMAAFGNKLASPDYNGKQFALDWHELSRDEIMSKYFS | -2.03 |

| Sequence | soluble fraction (log2) |
| --- | --- |
| HMALPDWLDPEAWAAWKRHRKAIRKPLTEDAVALSIRELAKLRDEGYGPTSVIENAILKGWQGLYPPK | -0.364 |
| HMALPGESVYVSILQSGSNRDQGVGYLDDGTMVVVDGAIKDIGKSIEVVINKSHQTVAGKMLFAKKVA | -0.667 |
| HMALPQPDDDRQDTKKRILDMAEDLLLTRGFNAFSYQHISSELGMKNAAIHYHYPKKNDLGVAVIQRYRRR | 0.128 |
| HMALQDKYAELLTAANTMGVTNLAVAEKDGTLHVSGTAKSTADYDSLWALYDKIDPNMASGDLMMNI | 0.36 |
| HMALQDKYKELTDAATAAGVTDLQVREQDNVLYIDGTAPSGAVKDQLWAIYDKIDPNFVSGDLVLNVNVD | 0.0863 |
| HMALTLDEARTQGRVGETFYGYLVALKTDAETEKLVNDINAERKASYQQLAKQNNVSVDDIAKLAGQKLV | 0.00592 |
| HMALWFDEWKKYQDTIASADLLPDKAERDALIAQAEDRFNYWMDIYPRSASLNHSFDDLYEEHRRKIE | -1.01 |
| HMAMDYEGFKKSVYALTSIDLNAYKERQMKRRIDTLIAKNKYNGYEDYTAAIKKDKALFEEFVNYLTIN | -2.05 |
| HMAMMTKQRLIQLIHIARNDLQMDEDTYRQMLQGLTGKASTKGMDTPQLNRVLESMKKKGFRIK | -1.69 |
| HMAMNLQETVLMQLRDLILRGTFEPGQRLSEQPLAERLKASRTPVRSALVTLEQEGLIEASETGKYLVRQ | -0.821 |
| HMAMTNEEREALISEIKQTVNNSIDLKKDISDTEIKEAITQAVFERSEKSYLSIAEKQDIITAVFNSMR | 0.378 |
| HMANADVVLVDLDKEYTVDAAKFHSVVKHSPFNGFAVKGAPVLTIVRGTVVAENGEVVGQPGHSKMVRP | 0.108 |
| HMANEGWDIYKLDIRNHKQPNGEYYSEKEIQSTINNTFGKGSFNVDWKKYEKDKEYREKTNYYYFQAKYFV | -0.903 |
| HMANHIAAIHVLKSKLQMSDSDYRVLITGLTQKASTKDMSDIERQRVRDHMQGLAERMGVVK | -0.66 |
| HMANIAVTIPTGSSGDRIADILLQAGLIKDKQDFNQAVIAAGAEGKLRAGYFVIPSNATPAEIISILT | -0.521 |
| HMANILKHKNKDGVITSYTIRVYHGYDEAGKRLRPYTMNYKPAPNMTARQIEKELNRQAVQFEEQIKNGYA | -0.892 |
| HMANKLTSTNLAKQHKMGLSEMYAELMNSGYLIEKDGKYELTPLGISIGGESKPNRYKKGEFYFLWPSDIS | -0.618 |
| HMANLLNLREIPVANIRPELTMFLIPGENITQAFQTIRDQVVFTNKRLIVANVQGLTGKKVSYTSYPY | -0.38 |
| HMANPFQELTERELDVLRQVAAGKNNREIAEALFIGEKTVKTHISNILSKLHLADRTQAAVYAWQQGMM | -0.223 |
